The text below walks through data of article PMC7722734, “Reverse C-glycosidase reaction provides C-nucleotide building blocks of xenobiotic nucleic acids” (Nature Communications, 2020).

The target of one data set is T1, Ribokinase (RbsK) (Escherichia coli, UniProt P0A9J6).
T1 construct: full length, N-terminal His6 tag (pET15b), expressed in E. coli BL21(DE3) pLys; 32,290 Da
T1 sequence (P0A9J6 1-309): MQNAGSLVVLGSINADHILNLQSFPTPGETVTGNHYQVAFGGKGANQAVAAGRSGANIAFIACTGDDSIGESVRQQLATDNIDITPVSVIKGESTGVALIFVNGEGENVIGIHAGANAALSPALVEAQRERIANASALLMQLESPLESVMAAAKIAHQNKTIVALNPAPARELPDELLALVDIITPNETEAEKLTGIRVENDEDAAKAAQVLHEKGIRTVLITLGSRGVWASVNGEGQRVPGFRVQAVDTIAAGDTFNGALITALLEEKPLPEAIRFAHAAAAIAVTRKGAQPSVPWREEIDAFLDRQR
Nature of the data set: phosphorylation, TLC. It counts as biochemical. The conditions noted are these: 2 mM ATP with PEP and pyruvate kinase, 1 mM MgCl2, 10 mM HEPES pH 7.0, 37 °C.

Substrate in data set [1]: O=c1[nH]ccc(=S)[nH]1
Nature of the data set: purified protein. As to conditions: 5 mM D-Rib5P, 2 mM MnCl2, 50 mM HEPES pH 7.0, 37 °C, reverse (synthesis) direction.

Substrate in data set [2]: Nc1cc(=O)[nH]c(=O)[nH]1
The experiment in a line: purified protein. The conditions noted are these: 5 mM D-Rib5P, 2 mM MnCl2, 50 mM HEPES pH 7.0, 37 °C, reverse (synthesis) direction.

Substrate in data set [3]: Cn1c(=O)cc[nH]c1=O
The experiment in a line: purified protein. The conditions noted are these: 5 mM D-Rib5P, 2 mM MnCl2, 50 mM HEPES pH 7.0, 37 °C, reverse (synthesis) direction.

Substrate in data set [4]: O=c1cc[nH]c(=S)[nH]1
The experiment in a line: purified protein. As to conditions: 5 mM D-Rib5P, 2 mM MnCl2, 50 mM HEPES pH 7.0, 37 °C, reverse (synthesis) direction.

For the molecule `OC[C@H]1OC(O)C[C@@H]1O` (stereo partly drawn) [D-dRib], at Ribokinase (RbsK), the “phosphorylation, TLC” value was “D-Rib, D-dRib, D-Xyl, D-Ara,2F-D-Rib, D-Glc were accepted”.

B1: YeiN (ΨMP C-glycosidase; β-pseudouridine 5′-phosphate glycosidase) (Escherichia coli K-12) (protein)
chain: MSELKISPELLQISPEVQDALKNKKPVVALESTIISHGMPFPQNAQTAIEVEETIRKQGAVPATIAIIGGVMKVGLSKEEIELLGREGHNVTKVSRRDLPFVVAAGKNGATTVASTMIIAALAGIKVFATGGIGGVHRGAEHTFDISADLQELANTNVTVVCAGAKSILDLGLTTEYLETFGVPLIGYQTKALPAFFCRTSPFDVSIRLDSASEIARAMVVKWQSGLNGGLVVANPIPEQFAMPEHTINAAIDQAVAEAEAQGVIGKESTPFLLARVAELTGGDSLKSNIQLVFNNAILASEIAKEYQRLAG
Usually Km stands for the substrate concentration at which the rate is half of its maximum. Usually kcat stands for the number of substrate molecules converted per active site and unit of time at saturation. As for B1, the Km in the data set “purified protein [1]” came to 1980 ± 300 µM; in “purified protein [2]”, 3230 ± 520 µM; in “purified protein [3]”, 1250 ± 330 µM; in the data set “purified protein [4]”, 7400 ± 2200 µM. Also, the kcat in the data set “purified protein [1]” was determined as 0.01 ± 0.01 s⁻¹; in the data set “purified protein [2]”, 0.01 ± 0.01 s⁻¹; in “purified protein [3]”, 0.46 ± 0.04 s⁻¹; in “purified protein [4]”, 0.43 ± 0.10 s⁻¹.
